Values of other authors in patent publication US8501705B2, “Methods and materials for treating autoimmune and/or complement mediated diseases and conditions” (The Board of Regents of the University of Texas System, priority 2003, dated 2013).

Target: C3 (Mus musculus, UniProt P01027)
Conditions: inhibition of C3

C3, sequence (P01027 25-1663): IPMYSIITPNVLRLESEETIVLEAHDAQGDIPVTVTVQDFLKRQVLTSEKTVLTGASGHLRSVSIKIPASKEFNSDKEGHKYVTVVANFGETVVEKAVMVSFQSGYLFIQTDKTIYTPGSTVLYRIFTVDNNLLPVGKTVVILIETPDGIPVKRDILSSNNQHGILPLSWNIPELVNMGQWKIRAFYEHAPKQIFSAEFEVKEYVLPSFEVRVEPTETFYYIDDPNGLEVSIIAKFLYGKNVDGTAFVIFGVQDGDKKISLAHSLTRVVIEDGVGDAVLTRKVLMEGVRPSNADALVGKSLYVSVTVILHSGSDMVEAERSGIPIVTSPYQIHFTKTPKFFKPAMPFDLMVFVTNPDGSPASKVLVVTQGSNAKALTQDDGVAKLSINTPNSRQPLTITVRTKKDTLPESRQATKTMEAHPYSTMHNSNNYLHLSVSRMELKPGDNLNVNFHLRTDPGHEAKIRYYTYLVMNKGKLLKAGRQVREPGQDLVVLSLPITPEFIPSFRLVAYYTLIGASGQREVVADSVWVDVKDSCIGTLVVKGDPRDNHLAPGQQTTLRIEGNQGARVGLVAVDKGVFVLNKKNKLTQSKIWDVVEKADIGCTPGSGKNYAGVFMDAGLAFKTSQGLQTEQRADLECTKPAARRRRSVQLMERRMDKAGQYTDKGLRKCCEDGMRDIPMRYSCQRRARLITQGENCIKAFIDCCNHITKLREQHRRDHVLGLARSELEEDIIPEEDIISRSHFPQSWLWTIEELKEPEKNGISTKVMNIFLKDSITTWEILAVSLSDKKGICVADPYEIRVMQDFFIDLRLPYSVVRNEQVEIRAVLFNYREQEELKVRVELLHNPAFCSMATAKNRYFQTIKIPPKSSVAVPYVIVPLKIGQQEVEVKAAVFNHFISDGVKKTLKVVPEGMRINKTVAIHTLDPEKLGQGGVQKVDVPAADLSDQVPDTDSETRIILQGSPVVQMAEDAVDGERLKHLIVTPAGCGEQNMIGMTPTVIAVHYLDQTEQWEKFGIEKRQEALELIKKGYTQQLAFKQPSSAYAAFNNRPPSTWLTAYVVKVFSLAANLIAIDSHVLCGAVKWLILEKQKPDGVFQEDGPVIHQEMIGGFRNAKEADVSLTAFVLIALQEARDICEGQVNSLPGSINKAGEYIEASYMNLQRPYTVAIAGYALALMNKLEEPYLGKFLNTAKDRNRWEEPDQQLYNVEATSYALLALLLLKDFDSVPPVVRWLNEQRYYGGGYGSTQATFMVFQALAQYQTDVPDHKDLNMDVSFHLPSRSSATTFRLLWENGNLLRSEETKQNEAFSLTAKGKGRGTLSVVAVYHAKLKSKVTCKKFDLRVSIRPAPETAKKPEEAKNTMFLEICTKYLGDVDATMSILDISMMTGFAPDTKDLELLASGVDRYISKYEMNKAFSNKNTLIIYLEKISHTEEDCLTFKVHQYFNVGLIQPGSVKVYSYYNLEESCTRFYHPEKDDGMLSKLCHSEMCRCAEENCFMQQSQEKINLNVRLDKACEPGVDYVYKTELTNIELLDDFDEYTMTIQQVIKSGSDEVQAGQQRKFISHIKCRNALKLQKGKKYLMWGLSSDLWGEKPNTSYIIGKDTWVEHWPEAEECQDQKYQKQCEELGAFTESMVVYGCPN

Question: For cobra venom factor, which EAMG disease induction is on record?
Answer: inhibits disease induction
